Measurements: the DeepSol protein solubility set

Experiment: soluble on expression in E. coli; label from the status in PepcDB or PDB records

**Q.** Which “soluble on expression in E. coli” value does the source give for “MSERRDCIVCTSGTCGRSWVFFRSGSGRRCIRSIFRESEGRTFGSNRISGSADHWTAIVERRKSRERGSKMKKEMTNDMTVGSPTKLIIQFMIPMCLGNVFQQFYNIADS” here?
**A.** not soluble

**Q.** For “MWIGMRDKWKGVGKVTQQEIIESLLQFINQETSTEEEFNEHALMLFAYQYENNLPYRTYCMQKGKTARTVKTWRDIPAVPINAFKELTLSCVSPEQAERVFMTSGTTRGVRGKHYHPTLSVYDHSMIVNFRKRFMKERDKIKMGILFPTEEHMPNSSLAHYLALAVNVFGTEDSHYLVDRDGLNMDRLLAELEQAEQSGEPYALLGASFSFVHVFEELAKRGKTFRLPEGSRILDTGGFKNQSREMDLDEFYDTLSAYLGVPRRECINMYGMTELSTQFYDDGNETVPSVKSGPHWIRTRVIHPLTGEEMPKGKRGVLVHCDLGNFNSVTTILTEDMGVETDGGFLLLGRVQGAEAKGCSMAVEEFIRAAKGTSELEHHHHHH”, which “soluble on expression in E. coli” value is on record?
**A.** not soluble

**Q.** With “NKDMEFTLRANFTYSTNKVNYYEEGDTKYEYTSATGRPNGYMKGYIALGLFKDQEEINNSPKQDFGSYLPGDIKYKDVNGDGVVNSDDQVPVSYQDYPRLMYGFGGEFRWKKLTLGVRFSGIGNTDYYKIWTWGSNNVGYIPFYDGKLGNVLTIAANPANRWIPADYDDPSIPASMRENPNAMFPRLSYGSNQNNAQASTFWKGNRKYLRLDEISLNYNCNCNLLKSIGINSIDLAVVANDLHTWDSVKLFDPELATSNGRAYPIPGRVSFQAIVHF” as the sequence, how does the “soluble on expression in E. coli” value read?
**A.** not soluble

**Q.** With “MNTEIEIIATDKVSNQAAMRSVLVMEQWGNGETYSEERWVERGRQAVRQTMEGMFELGRALIILKEHTEHGRFMEIVKSQFGLGIAETSRLMSATRRFATPQMQKAAPKLMDLGKSKLLELLVEEDVTLVGLAEGEEVNGMTFDDVDRMTVRELRVALRESRENLAAKDEVMKTKTAKIDELAEKLAKKQTVVREPKAEDVGSELAMQLTSLEVGIRSQVSRLKDLFDQLNAHSEAHGISHQAKMVGTLNQIILDCEQLRESYALPTEAPTDNVPEWLGGETGEGDESGND” as the sequence, how does the “soluble on expression in E. coli” value read?
**A.** not soluble

**Q.** Which “soluble on expression in E. coli” value does the source give for “MDMTDMTTTGSATEAATAAASSTPLPTFGQSLTEQLTPILGDAETQQLASLIAHLPTIKGQTDEQSIALYVDTLTQLKEKNSVFSGAALSESASIWMRSLQRVSSNGKMDSAELATQMNNALASQFQTWFADQLTDKVDSSLPTQFVSQFQLGTESTQAQQIAKLSAEELKSATGDIASFVDDLARQMSSSVVRESASSFLRNAFAHLPSMNLAQLKASDFLLTEANFVTNVSTQLQNVFKQIGITLTKDVADELAKRITWTPGISKQQLSEVLSEMATQVKGQFTAAYGETAGTENLRKALDAIIKSSDSLTLSSLFANFAVSLIHTEIDAFYNDKAIADIQKTQISADQAELIKNNTERDIRFQFEKMLKGESTGASFIERYETLRKNL” here?
**A.** not soluble

**Q.** For “MGSDKIHHHHHHMMSGLVYRKRRRQNMTALERSWFEEAQQSMHGWDFSHLAGRWQTADLPWDYAALVREHLSADDRWLDIDTGGGELMGRFNPQPALTAVTEGWQPNIELLKQTVVKKGITLYPDAAEQLTAVPNSTFDIVTNSHGAMPVKRIAEVLKPGGRFVTQQVGATNNYALSRFFDEHYETAYPDNQLLTVMAQMQAAGFEILRAEQAYAALSFTDVGAIVYYATVIPWEFPHFDVARMLPKLHQLQSLLAINGRVTTFEDRFMIIARKLARRD”, which “soluble on expression in E. coli” value is on record?
**A.** not soluble

**Q.** With “RRTAEAERDRLNELLQIFTAAVPGVVYAKDLEGRMLVANRGTAELVGKPPEFFIGKTDLEFLDDEQQARVLMETDQRIMQSNVSEQIEEKVNLADGSAAIWLSTKAPLLDRNGDVIGLIGSSIDVT” as the sequence, how does the “soluble on expression in E. coli” value read?
**A.** not soluble

**Q.** With “MGSDKIHHHHHHMKLANQFNIAITPSGGRTGLSAGAVATNGEIVISMDKMNQILEFFPADRMVRVQAGVVTEQLQNYAEEQGMYYPVDFASAGSSQIGGNIGTNAGGIKVIKYGMTRNRVLGLTVVTGKGDILRLNKGMIKNATGYALQHLFIGGEGTLGLVTEAEIKLERQPQNLQVLVLGVPDFDAVMPVLHAFQKDIDLTAFEFFGELAMQKVLDRGHVQRPFETQCPFYVLLEFEAPYEPIIDKAMEIFEHCMEQGWVLDGVMSQSLDQVESLWRLREDISESIAPFIPYKNDISVLITHVPAFIREIDAIVQENYPDFEICWFGHIGDGNLHLNILKPENLTKDEFFAKCQVVNKYVFDTVKKYDGSISAEHGVGMTKKPYLEYSRSAEEIEYMKALKKVFDPKGIMNPGKLFDL” as the sequence, how does the “soluble on expression in E. coli” value read?
**A.** not soluble

**Q.** For “MALKAQNTISGKEGRLFLDGEEMAHIKTFEANVEKNKSEVNIMGRRMTGHKTTGANGTGTATFYKVTSQFVLIMMDYVKKGSDPYFTLQAVLDDASSGRGTERVTLYDVNFDSPKIAGLDVDSEALEEEVPFTFEDFDVPEQLKSTFLEHHHHHH”, which “soluble on expression in E. coli” value is on record?
**A.** soluble

**Q.** With “MGSDKIHHHHHHMTRKFGEIAFTPEVQAAQEERGSRQTYDRYIANGPANDTITPNIAKFIAQLEGFYLGTVSSNGYPYIQFRGGSPGFLKVLDEKTLGFADFSGNLQYITVGNLSSNDKAFLFLMDYRHRQRIKIWGRAEYIEGESSLLEQVRVADYPAQVERAILFHVEATSENCPQHIPVRYSEREVKAMMAPLENRIAELEQQLSEQNSSSKTGKQLPSRD” as the sequence, how does the “soluble on expression in E. coli” value read?
**A.** not soluble

**Q.** Which “soluble on expression in E. coli” value does the source give for “MIMSEMITRQQVTSGETIHVRTDPTACIGSHPNCRMFIDSLTIAGEKLDKNIVAIDGGEDVTKADSATAAASVIRMSITPGSINPTISITLGVLIKSNVRTKIEEKVSSILQASATDMKIKLGNSNKKQEYKTDEAWGIMIDLSNLELYPISAKAFSISIEPTELMGVSKDGMRYHIISIDGLTTSQGSLPVCCAASTDKGVAKIGYIAAA” here?
**A.** soluble

**Q.** With “GSTSAKRIQKELAEITLDPPPNCSAGPKGDNIYEWRSTILGPPGSVYEGGVFFLDITFSPDYPFKPPKVTFRTRIYHCNINSQGVICLDILKDNWSPALTISKVLLSICSLLTDCNPADPLVGSIATQYMTNRAEHDRMARQWTKRYAT” as the sequence, how does the “soluble on expression in E. coli” value read?
**A.** soluble

**Q.** With “MEIFQKAKAVRLRSHHDKYLVADEDEESVTQERNGSAGAAKWTVEIIPGSTNLIRLKSAYGKYLTASNKPFLLGATGKKVLQTKPSRLDSSLAWEPIRDSALVKLKTRYGNFLRGNGGLPPWRNSVTHDIPHRSATQEWVLWHIDVVEILPANANSDHHHQHLQLQQPPSPLHHSDSLDFTPGSPSRSDRFFRQESTDSLAVGSPPKSEGRVIYYHVADDDDDVEDDSVEVSSFTFKGNGVEELTMRLKEESNVEDVIVCTRSPLNGKLFPLRLQLPPNNADMTVVLVPKSSKSESLLVLISSQVVALSLMFSVFLDLTVAEKFIK” as the sequence, how does the “soluble on expression in E. coli” value read?
**A.** not soluble

**Q.** Which “soluble on expression in E. coli” value does the source give for “ASAFSESEETFVRIVAQWAGKEISRRRNQKRANAERERLRQIIDTIPQQVFVKDADGTYTLANKAAAAAHGVAVERLEGATHDEFALSDEQRDFKSDDAAVIENGESVHIEEDGLVEADGSSHTVQTDIVPIEIAS” here?
**A.** not soluble

**Q.** For “MGSDKIHHHHHHMVQVDNTFYDGSAYDPETVRFFDVAQEGAQVRQIGGLVAQGALSAFEGLRPRSVVVMLDGQIHRSCVRLVETLHSPMRQPLVITSTLPHYIGALDVLIVITDNGADEKALKALITASQRGVATLLIGPSSGPLIDESPQDTFVLPTLPTAAGLSPARIVASISTLLDLLEADPSIISDRLEHLADCIDEEVESLSPERDELVNPGRKLRAYVDHARIVHTGRTDVGLAIANVIAPIWTRRGLVSAVLDFPELMESLPELRGPEPITDDIFHDPFIDDEPGVVPFRAVVWAEEEPGIPDAMAQSCDGPSKGALTQALRLLVRGQSATTYSIEEKDL”, which “soluble on expression in E. coli” value is on record?
**A.** not soluble

**Q.** Which “soluble on expression in E. coli” value does the source give for “LANKQIESRIIQFDVEFPSDEVAKQLSIEKTVPVYHIIRLRKVEGEPYVIEETYMPSNVISELNEDVLHGSVYRHITETLKLTIAGSHRKIRADKSSALDREYLECAPDDPVLEVEQVAFLNTGEPFEYSFARHRYDKFVFSSVHIRK” here?
**A.** not soluble

**Q.** Which “soluble on expression in E. coli” value does the source give for “MAIQTVSTKPFANQKPGTSGLRNKVIAFQQPRYLENFVQSIFNSLDDIEGKTLVVGGDGRYYNDVAIQIIVRMAAANGFAKIIVGQNGIFSTPAVSCVIRKYEAFGGIVLSASHNPGGPKGDFGIKYNVSNGGPAPEKITDRIFSETKKINQYFISDAAKESVDLDKLGTYKIENTTVEVINSVIDYAELMQQIFDFDKVRELFAKGFKVRFDSMCAVSGPYAKYIFETLLKAPAGTVVNAQPLEDFGGFHPDPNPVNAEDLVKHMRSGKYDFGAASDGDADRNMIVGKQIDVSPSDSLAIMAANAHLIPVYSKGIKGVARSMPTSTAVDRVAESLRLPCFETPTGWKFFGNLLDAEKITLCGEESYGTGSNHIREKDGVWAVLFWLNLVAVTGKQVDQLVEEHWQKFGRNFYSRHDYEAIDTAIANSIIDSLRERLSSLVGAQLNDEKVAKADDFSYIDPIDGLVSNHQGIRIIFEDGSRIVFRLSGTGTQGATLRIYLEKYESDSSKFSIPTQQALASLIEIAEDLTNIKSLTGMTEPTVVT” here?
**A.** not soluble

**Q.** For “MSLDNIIIIQTKNPNYYAIKYAYKNQYEQFYEEELNIRKKLNYPPFNKIIRIIFRSKNEESAKQKCWEFFEKSKEFLQEEIEHLGPSEAIMKKISKNYRYNIIYLSKSYSLLEKLVNKTKEKVKMTSTVYIEIDYYPISEGHHHHHH”, which “soluble on expression in E. coli” value is on record?
**A.** not soluble

**Q.** Which “soluble on expression in E. coli” value does the source give for “MSLATEIVENMFCVNAPAGSGKTTKIKSMIVNHKIKHPIDNILCITYTKRAAEELNKDFNEEGIHISTIHSFLHKFLKIYFCKTEMKDLYFEMFEDLIKESIENKEEKEHIVTRNQKYIEKHGCLSVESIKANIDAIYYNESSNNHLYTGGLAHDSLLLFAEKVFDKFPKIKMRLTQKYQSIFIDEYQDSAASVLRMFYKACLNTKSNLYFLGDKMQQIYKNYDGSFEEELKTLNTDIKLDINHRSIPDIVSVLNNIYNDKGFKQNPSKKNLDIKPDHPPRIIMCDNIQERLKRECSIYPDALLLFLLNQQKFASIGARELYKQFSHLERYSHAKQLSATDVLSDNTSENTDPLLKLLFIVGEVVDYYKKSNVGSIIQIFKANRKLFDMGIGTITSHRDRIDLTKLLKQLYEDYHKEISISEFLTLLRGCNEGHHHHHH” here?
**A.** not soluble

**Q.** With “MANVGGRRKPAADARLEVIQKLFPEAVVDGGIDWELLKRVFGGHERQEAYEFTWPGKAEARRLAELPASGVLRPDQAASKQWETTNNWYIEGDNLEALKLLRTSHAGTIQMIYIDPPYNTGKVLTYKDNWRKGKAVVPSGIQEEARGHVGWLNMMYPRLWVARELLAETGAIFISIDDTEQANLRKMCDEIFGERNFVATFIWQRAFSPVNMNKFASRNHDFILCYAKNIDRLAWYGLPRHPEADVRYANPDNDPRGPWMSGDLSVGPPIPEKIYEIVTPSGRVVSPPNGYCWRVTKERFAELAADNRIWFGKDGNGVPRLKRFLSEVKSTVTPLTIWTHDEVSHSQEAKKELKELFDGLAVMDYPKPVKLIQRMVALTTRDDDPILDFFSGSATTAHAVMQQNAEDGGRRSFIMVQLPERLAETSEAYRVGFRTICDIGRERIRRAGEKIVYETGKTELDIGFKVFRIERTNQPAR” as the sequence, how does the “soluble on expression in E. coli” value read?
**A.** not soluble

**Q.** Which “soluble on expression in E. coli” value does the source give for “GMSSSGIEIAKPFVTATTNVLSTMAGIQPIPGQPYVKKNNVAKGDVSAVVGITGHKNGSISVTFTKQCAIAVVKAMLGDDIQDIIQDTKDAVGEVTNMISGQARAALSEMGMTFQGATPSVIMGDGHTISHVTKSPVIAIPFKTNHGEFTVEFCLE” here?
**A.** soluble
